From patent publication US20180155431A1 (Hoffmann-La Roche, published 2018)

Molecular target: T1, human angiopoietin 2 (human, UniProt O15123 19-496, limits assumed)
T1 construct: The protein was bought (R&D Systems Cat. No. 623-AN) or produced in house; also called ANG-2; ANGPT2
T1 sequence: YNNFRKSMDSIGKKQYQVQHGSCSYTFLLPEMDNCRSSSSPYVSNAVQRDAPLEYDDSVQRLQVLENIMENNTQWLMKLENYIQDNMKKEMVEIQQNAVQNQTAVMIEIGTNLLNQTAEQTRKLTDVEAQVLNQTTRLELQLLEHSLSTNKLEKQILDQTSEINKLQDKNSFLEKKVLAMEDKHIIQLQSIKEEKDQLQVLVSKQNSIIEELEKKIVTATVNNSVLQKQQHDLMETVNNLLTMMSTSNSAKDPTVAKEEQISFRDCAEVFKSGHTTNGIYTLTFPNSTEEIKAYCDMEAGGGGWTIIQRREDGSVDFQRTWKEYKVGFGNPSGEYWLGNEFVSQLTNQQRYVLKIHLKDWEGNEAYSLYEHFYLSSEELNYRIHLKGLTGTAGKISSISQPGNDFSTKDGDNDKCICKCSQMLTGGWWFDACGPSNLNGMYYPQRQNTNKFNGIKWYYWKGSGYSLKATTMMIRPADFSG
Test: ANG-2/Tie2 interaction ELISA: antibody dilutions pre-incubated with 0.2 ug/ml human ANG-2, then added to plate-coated human Tie2; bound ANG-2 detected
Procedure: After washing a mixture of 0.5 μg/ml biotinylated anti-Angiopoietin-1/2 clone (R&D Systems #BAF923, BAM0981 R&D Systems, UK) and 1:3000 diluted streptavidin HRP (Roche Diagnostics GmbH, DE, Cat. No. 11089153001) was added for 1 h. Thereafter the plates were washed 6 times with PBST. Plates were developed with freshly prepared ABTS reagent (Roche Diagnostics GmbH, DE, buffer #204 530 001, tablets #11 112 422 001) for 30 minutes at RT. Absorbance was measured at 405 nm.

B1: <ANG-2> LC06 (antibody, V domains shown)
VH: not shown
VL: QPGLTQPPSVSVAPGQTARITCGGNNIGSKSVHWYQQKPGQAPVLVVYDDSDRPSGIPERFSGSNSGNTATLTISRVEAGDEADYYCQVWDSSSDHYVFGTGTKVTVLG
In the case of B1, the IC50 is reported as 0.1 nM.
